# Reference: patent US20250000976A1 (NATIONAL RESEARCH COUNCIL OF CANADA, published 2025)
# Changes are numbered by the printed parent chain.
# T1: hBCMA-ECD-FC5VHH (human, UniProt Q02223 1-54, biotinylated in vivo ; biotinylated in vivo on the tag of the carrier part, which is not in the letters)
# T1 construct: Made in HEK-293 cells, monomeric SEC fraction; The methods say about 500 RU captured on an SA chip; the results say immobilised on a CM5 chip; also called hBCMA-FC5; human BCMA-ECD; not shown: FC5 VHH carrier, any linker, and the His and biotinylation tags
# T1 sequence: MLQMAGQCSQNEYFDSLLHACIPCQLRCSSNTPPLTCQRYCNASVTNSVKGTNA
# B1: hBCMA-2C3 (VHH)
# VHH: QVKLEESGGGLVQTGDSLRLACTISGRATDHFVMAWFRRAPGKEREYVATRVWSGGSPYYLDSAKGRFAIAIDNAKNTAYLQMNNLKPEDTAVYYCAATKDIMSRSYDYWGLGTQVTVSS
# modifications: single biotin on the C-terminal AviTag
# notes: Variant of E7 with the same CDRs; also called VHH #2; not shown: C-terminal His tag and AviTag biotinylation signal from pMRO vector
# B2: hBCMA-H1 (VHH)
# VHH: QVQLVESGGGLVQPGGSLRLSCAASGSGFGTHVMGWYRQAPGKPRELVAAISSAGSTFYRDSVKGRFTVSRDNAKNTMYLQMDRLKPEDTAVYYCNGAPWADEPVKVWNWGQGTQVTVSS
# modifications: single biotin on the C-terminal AviTag
# notes: not shown: C-terminal His tag and AviTag biotinylation signal from pMRO vector
# B3: hBCMA-D2 (VHH)
# VHH: B2 VHH with G28I, H32Y, V33N, P44Q, S56N, P87Y, Y94N, A101G, E103A, P104L
# modifications: single biotin on the C-terminal AviTag
# notes: as for B2
# B4: hBCMA-3F2 (VHH)
# VHH: QVQLVESGGRLVQTGDSLRLTCEISGHTSNQFVLAWFRRPPGKEREVVATRFWGGGSPYYSDSVRGRFAIAIDDAKNTAYLQMSSLKPEDTAVYYCAATKDILSRGYDYWGQGTQVTVSS
# modifications: single biotin on the C-terminal AviTag
# notes: as for B2
# B5: hBCMA-2F10 (VHH)
# VHH: QVQLVESGGGLVQSGNSLRLSCSISGHTTKNFVMAWFRRAPGKERAIVATRVWSGGSPWYSESAKGRFTISIDDARNTAYLQMNNLKPEDTAVYYCAATKDIMSRGYVYWGLGTQVTVSS
# modifications: single biotin on the C-terminal AviTag
# notes: as for B2
# B6: hBCMA-B5 (VHH)
# VHH: QVKLEESGGGLVQPGGSLRLSCAASGSIFGTYNMGWYRQAPGKQRELVAAISSAGNTFYRDSVKGRFTVSRDNAKNTVYLQMDRLKYEDTAVYNCNGAPWADAEVKVYNWGQGTQVTVSS
# modifications: single biotin on the C-terminal AviTag
# notes: as for B2
# B7: hBCMA-VcMRo1(V1/V6) (VHH)
# VHH: EVQLQQSGGGLVQAGESLTISCAVFGDPITVATMGWYRQAPGKLRELVAAISSAGSTFYRDSVRGRFTVSRDNAKSTMYLQMDRLKVEDTAVYSCNGAPWGDAPVKVWTWGEGTQVTVSS
# modifications: single biotin on the C-terminal AviTag
# notes: as for B2
# B8: hBCMA-F2 (VHH)
# VHH: QVKLEESGGGLVKPGGSLRLSCGASGNSFGAYNMGWYRQAPGKQRELVAAISSTGNTFYRDSVRGRFTVSRDNAKSTMSLQMERLKPEDTAVYLCNGAPWGDDPVKVWSWGQGTQVTVSS
# modifications: single biotin on the C-terminal AviTag
# notes: as for B2
# Target: T1, hBCMA-ECD-FC5VHH
# Assay: SPR
row,binding result,Binder
1,binds,B1

# Target: T1, hBCMA-ECD-FC5VHH
# Assay: SPR (Biacore T200), VHH 20-500 nM over BCMA-ECD surface, 25 C
# Description: For surface Plasmon resonance, 15 selected VHHs were passed though size exclusion columns, Superdex 75 (GE Healthcare), respectively, in 10 mM HEPES, pH 7.4, containing 150 mM NaCl, 3 mM EDTA, monomeric sdAb fractions were collected and protein concentrations were determined by measuring absorbance at 280 nm (A280). Analysis were performed with Biacore T200 instrument (GE Healthcare). All measurements were carried out at 25° C. in 10 mM HEPES, pH 7.4, containing 150 mM NaCl, 3 mM EDTA and 0.005% surfactant P20 (GE Healthcare). Approximately 500 RUs of the recombinant monomeric BCMA-ECD (obtained after SEC purification of the BCMA-ECD-FC5VHH) were captured on SA sensor chip (GE Healthcare) at a flow rate of 5 uL/min. Various concentration of the monomeric VHHs (20-500 nM) were injected over BCMA-ECD surface, respectively using an SA surface as a reference at a flow rate of 40 μL/min. Surfaces were generated by washing with running buffer. Data were analysed with BIAevaluation 4.1 software.
# The monomeric fraction of all 15 VHHs were used for SPR experiment where the human BCMA-ECD or mouse BCMA was immobilized onto the CM5 dextran chip and various VHH concentration (20-500 nM) were passed over the sensor chip.
Kd,koff,kon,Binder
152 pM,0.000462 s⁻¹,3.05e+06 M⁻¹ s⁻¹,B2
403 pM,0.000978 s⁻¹,2.42e+06 M⁻¹ s⁻¹,B3
631 pM,0.00253 s⁻¹,4.01e+06 M⁻¹ s⁻¹,B4
216 pM,0.00091 s⁻¹,4.22e+06 M⁻¹ s⁻¹,B5
220 pM,0.00237 s⁻¹,1.08e+07 M⁻¹ s⁻¹,B6
303 pM,0.000262 s⁻¹,867000 M⁻¹ s⁻¹,B7
68.3 pM,0.000349 s⁻¹,5.11e+06 M⁻¹ s⁻¹,B8
